Results: patent publication US20170360911A1 (SAPPORO MEDICAL UNIVERSITY, published 2017)

B1: As271_10 (peptide)
peptide: MLEAGAEANL
notes: read as 39 from its place between 38 and 40

How the values were obtained:
HLA-A*02:01 = target: T1, HLA-A*02:01 (human); assay: T2-A24 MHC class I stabilization, flow cytometry, anti-HLA-A02 BB7.2-FITC, peptide 100 ug/mL
T1 construct: whole, on cells; Empty class I molecule on TAP-deficient T2-A24 cells; detected with anti-HLA-A02 antibody BB7.2

HLA-A*24:02 = target: T2, HLA-A*24:02 (human); assay: T2-A24 MHC class I stabilization, flow cytometry, anti-HLA-A24 17A10-FITC, peptide 100 ug/mL;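 also: peptide exposure stabilizes otherwise empty class I molecules on T2 cell surfaces, so surface class I level reflects how strongly the peptide binds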
T2 construct: whole, on cells; Empty class I molecule on T2-A24 cells
Experimental: T2 cells can usually only express a low level of empty MHC class I molecules on the cell surface. However, when a peptide that can bind to the MHC class I molecule is added, the empty MHC class I molecule binds to the peptide and can be present on the cell surface in a stable manner. Therefore, the cell surface MHC class I expression level depends on the MHC class I binding affinity of a peptide.
The T2-A24 cells were subcultured at 37° C. under 5% CO₂. […] These peptides were dissolved in DMSO and further diluted by 200 times with RPMI 160 medium. A cell suspension and the peptide solution were mixed and cultured under conditions of 5% CO₂ and 26° C. for 16 to 18 hours. Co-culturing was carried out at a temperature of 37° C. for a further 3 hours, the supernatant was then removed by centrifuging, and cells were isolated. […] Subsequently, the cells were washed with 3% FBS-containing PBS, 4% paraformaldehyde phosphate buffer was added, and the mixture was allowed to stand at room temperature for 10 minutes to thus fix the cells. The fixed cells were subjected to measurement of FITC fluorescence intensity by a flow cytometer (FACScan). The mean fluorescence intensity (MFI) was calculated as a solvent ratio.

Binder | MFI (solvent ratio) (HLA-A*02:01) | MFI (solvent ratio) (HLA-A*24:02)
LLNHGAARI [As311_9] | 0.9 ratio to solvent | 0.9 ratio to solvent
CYSLSGHTAL [As135_10] | 1.6 ratio to solvent | 2.4 ratio to solvent
AILIQRQIDV [As35_10] | 3.4 ratio to solvent | 1.1 ratio to solvent
RIYPPQFHKV [As318_10] | – | 3.6 ratio to solvent
AAQPEICYQLL [As301_11] | 2.6 ratio to solvent | 2 ratio to solvent
PLLSLPLSL [As405_9] | 2.2 ratio to solvent | 2.8 ratio to solvent
SVLFGHVECL [As82_10] | 3.3 ratio to solvent | 2.7 ratio to solvent
LVLLDHNATI [As92_10] | 2.6 ratio to solvent | 1.1 ratio to solvent
QYVLKVTSV [As290_9] | 1 ratio to solvent | –
HVLMHMMLEA [As265_10] | 2 ratio to solvent | –
VVVNAYEHI [As340_9] | 0.9 ratio to solvent | 1 ratio to solvent
FEVEDENMVL [As48_10] | 1 ratio to solvent | –
YLLLEPEGII [As416_10] | 2.8 ratio to solvent | –
RMLLDYKAEV [As236_10] | 3.3 ratio to solvent | 1 ratio to solvent
KILCDRGAKL [As124_10] | 1.6 ratio to solvent | 2.2 ratio to solvent
SLPLSLKKYL [As408_10] | 1 ratio to solvent | 1 ratio to solvent
LMDINGCAAI [As280_10] | 3.1 ratio to solvent | 1.2 ratio to solvent
DFGKLKAIL [As29_9] | 1 ratio to solvent | 1 ratio to solvent
ILCDRGAKL [As125_9] | 1.9 ratio to solvent | 1.8 ratio to solvent
GLSELVAFYV [As186_10] | 2.6 ratio to solvent | 1.1 ratio to solvent
HLSVLFGHV [As80_9] | 1.6 ratio to solvent | 2.1 ratio to solvent
AFYVEHGAIF [As192_10] | 1.1 ratio to solvent | 2.2 ratio to solvent

Binder | MFI (solvent ratio) (HLA-A*02:01) | MFI (solvent ratio) (HLA-A*24:02)
SILCAKQLV [As152_9] | 1.8 ratio to solvent | –
B1 | 1 ratio to solvent | 1.2 ratio to solvent
KLVKRNFLEAL [As15_11] | 1 ratio to solvent | 1 ratio to solvent
HVECLLVLL [As87_9] | 1.5 ratio to solvent | 1.6 ratio to solvent
LLLNHGAARI [As310_10] | – | 1.2 ratio to solvent
ATGLHLSVLF [As76_10] | 0.9 ratio to solvent | 2.1 ratio to solvent
IQYVLKVTSV [As289_10] | 1.2 ratio to solvent | 1.5 ratio to solvent
HFGLSELVAFYV [As184_12] | 3.1 ratio to solvent | 3.2 ratio to solvent
VLFGHVECLL [As83_10] | 3.6 ratio to solvent | 2.8 ratio to solvent
AIPLLSLPL [As403_9] | 0.9 ratio to solvent | 1.1 ratio to solvent
KYWDFYHSLFTV [As365_12] | 1 ratio to solvent | 2.4 ratio to solvent
DFYHSLFTV [As368_9] | 1 ratio to solvent | 1.1 ratio to solvent
KYWDFYHSL [As365_9] | 1.1 ratio to solvent | 2.5 ratio to solvent
KLKSSWATGL [As70_10] | 1.1 ratio to solvent | 1 ratio to solvent
TLMHLSRCAI [As383_10_5L] | 2.4 ratio to solvent | 1 ratio to solvent
CYQLLLNHGA [As307_10] | 2.5 ratio to solvent | 1.9 ratio to solvent
KQLVWRGANV [As157_10] | 1.2 ratio to solvent | 1 ratio to solvent
IYPPQFHKV (also called ASB4 peptide) [IV9] | 0.9 ratio to solvent | 3.3 ratio to solvent
HFCTTPSSIL [As145_10] | 1 ratio to solvent | 1.2 ratio to solvent
QIDVDTVFEV (41-50 follows from start and length) [As41_10] | 1.2 ratio to solvent | 1.1 ratio to solvent
GYWLPSYKL [As63_9] | 1.1 ratio to solvent | 1.2 ratio to solvent
PLAIAAYWAL [As211_10] | 1.1 ratio to solvent | 2.1 ratio to solvent
